Experimental data from patent US20130302347A1 (Genentech, published 2013).

T1: mTMEM149-Fc (mouse TMEM149 extracellular domain with C-terminal human IgG1 Fc) (mouse; human, UniProt Q3U4N7 21-163)
T1 construct: Only the predicted extracellular domain, without the transmembrane domain, was used; the signal peptide is residues 1-22; not shown: human IgG1 Fc, C-terminal
T1 sequence: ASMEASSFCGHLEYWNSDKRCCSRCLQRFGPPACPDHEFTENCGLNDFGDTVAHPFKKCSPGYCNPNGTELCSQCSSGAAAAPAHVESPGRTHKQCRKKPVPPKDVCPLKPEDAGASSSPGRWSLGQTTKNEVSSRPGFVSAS

T2: nerve growth factor receptor (NGFR) on transfected 293T cells (UniProt P08138 29-427, limits assumed)
T2 construct: whole, on cells
T2 sequence (looked up): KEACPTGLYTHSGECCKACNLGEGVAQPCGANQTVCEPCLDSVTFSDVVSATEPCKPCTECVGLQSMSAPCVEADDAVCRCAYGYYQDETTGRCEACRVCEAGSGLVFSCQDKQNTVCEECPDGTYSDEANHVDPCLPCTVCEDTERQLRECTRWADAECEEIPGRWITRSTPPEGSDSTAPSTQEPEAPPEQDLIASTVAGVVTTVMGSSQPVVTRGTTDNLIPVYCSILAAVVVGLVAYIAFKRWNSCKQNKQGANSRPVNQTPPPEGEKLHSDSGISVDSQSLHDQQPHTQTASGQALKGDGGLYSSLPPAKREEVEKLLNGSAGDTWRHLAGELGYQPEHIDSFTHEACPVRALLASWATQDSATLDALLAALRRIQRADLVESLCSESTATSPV

T3: DR4 on transfected 293T cells (UniProt O00220 24-468, limits assumed)
T3 construct: whole, on cells
T3 sequence (looked up): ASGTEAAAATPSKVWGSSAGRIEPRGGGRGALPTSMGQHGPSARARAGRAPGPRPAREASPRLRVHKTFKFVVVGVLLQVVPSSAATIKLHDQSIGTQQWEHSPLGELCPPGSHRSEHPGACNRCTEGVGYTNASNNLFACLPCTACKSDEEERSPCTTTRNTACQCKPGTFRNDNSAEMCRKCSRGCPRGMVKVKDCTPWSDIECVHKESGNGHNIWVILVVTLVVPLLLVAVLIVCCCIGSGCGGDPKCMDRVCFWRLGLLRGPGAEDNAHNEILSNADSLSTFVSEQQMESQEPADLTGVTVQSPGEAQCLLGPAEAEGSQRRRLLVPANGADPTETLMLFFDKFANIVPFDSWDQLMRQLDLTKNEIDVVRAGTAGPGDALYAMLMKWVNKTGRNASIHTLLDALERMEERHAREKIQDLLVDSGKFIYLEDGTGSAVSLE

T4: Mouse TMEM149 on the cell surface (transfected 293T cells; mouse T cells) (mouse, UniProt Q3U4N7 23-345)
T4 construct: also called mTMEM149; murine TMEM149
T4 sequence: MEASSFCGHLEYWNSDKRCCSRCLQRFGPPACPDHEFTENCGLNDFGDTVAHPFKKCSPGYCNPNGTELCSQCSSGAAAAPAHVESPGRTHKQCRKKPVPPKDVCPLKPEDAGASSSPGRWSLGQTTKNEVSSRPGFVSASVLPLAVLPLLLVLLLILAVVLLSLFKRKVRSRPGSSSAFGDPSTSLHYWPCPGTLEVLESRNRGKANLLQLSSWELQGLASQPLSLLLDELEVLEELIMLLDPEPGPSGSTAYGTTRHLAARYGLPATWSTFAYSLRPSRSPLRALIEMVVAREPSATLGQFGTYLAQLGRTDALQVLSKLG

T5: EDA-A1 (UniProt Q92838 245-391, limits assumed)
T5 sequence (looked up): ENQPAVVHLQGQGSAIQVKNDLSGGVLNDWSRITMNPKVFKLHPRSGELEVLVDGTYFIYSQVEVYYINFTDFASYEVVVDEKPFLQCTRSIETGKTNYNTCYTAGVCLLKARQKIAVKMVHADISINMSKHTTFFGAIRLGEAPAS

T6: FasL (UniProt P48023 134-281)
T6 sequence (looked up): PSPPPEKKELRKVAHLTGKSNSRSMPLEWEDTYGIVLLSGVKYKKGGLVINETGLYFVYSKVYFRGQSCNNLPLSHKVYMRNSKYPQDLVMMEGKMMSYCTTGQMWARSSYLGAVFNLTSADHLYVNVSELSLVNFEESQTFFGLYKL

T7: CD30L (UniProt P32971 63-234)
T7 sequence (looked up): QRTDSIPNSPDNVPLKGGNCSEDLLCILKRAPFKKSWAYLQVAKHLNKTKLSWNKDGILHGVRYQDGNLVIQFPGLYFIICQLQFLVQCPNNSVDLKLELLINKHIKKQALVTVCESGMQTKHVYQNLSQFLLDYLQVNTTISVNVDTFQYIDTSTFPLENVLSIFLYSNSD

T8: RANKL (UniProt O14788 140-317, limits assumed)
T8 sequence (looked up): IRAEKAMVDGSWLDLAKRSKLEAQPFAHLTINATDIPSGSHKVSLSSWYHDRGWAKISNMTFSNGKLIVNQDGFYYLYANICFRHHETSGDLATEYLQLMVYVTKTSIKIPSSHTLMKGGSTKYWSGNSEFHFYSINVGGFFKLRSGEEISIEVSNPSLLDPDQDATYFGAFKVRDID

T9: APRIL (UniProt O75888 105-250, limits assumed)
T9 sequence (looked up): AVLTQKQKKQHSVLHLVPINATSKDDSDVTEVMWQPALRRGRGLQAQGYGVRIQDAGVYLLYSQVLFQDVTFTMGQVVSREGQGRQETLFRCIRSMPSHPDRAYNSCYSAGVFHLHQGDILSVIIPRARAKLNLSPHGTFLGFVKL

T10: LTα (UniProt P01374 35-205)
T10 sequence (looked up): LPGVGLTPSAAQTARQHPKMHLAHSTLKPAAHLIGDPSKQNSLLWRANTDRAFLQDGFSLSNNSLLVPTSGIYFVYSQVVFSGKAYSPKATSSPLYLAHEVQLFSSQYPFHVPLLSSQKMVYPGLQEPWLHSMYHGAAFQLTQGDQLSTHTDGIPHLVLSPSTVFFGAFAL

T11: TL1A (UniProt O95150 72-251)
T11 sequence (looked up): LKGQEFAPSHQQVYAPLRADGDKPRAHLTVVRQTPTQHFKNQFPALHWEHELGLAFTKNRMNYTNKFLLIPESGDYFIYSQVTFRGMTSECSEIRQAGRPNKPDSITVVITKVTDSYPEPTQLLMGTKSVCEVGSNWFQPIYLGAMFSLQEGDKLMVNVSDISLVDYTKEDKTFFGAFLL

T12: CD27L (UniProt P32970 39-193, limits assumed)
T12 sequence (looked up): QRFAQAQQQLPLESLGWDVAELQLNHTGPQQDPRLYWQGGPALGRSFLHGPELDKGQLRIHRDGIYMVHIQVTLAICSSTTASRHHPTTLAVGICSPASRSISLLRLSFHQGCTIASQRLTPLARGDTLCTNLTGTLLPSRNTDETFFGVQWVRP


What was measured:
[1] = molecular target: T1, mTMEM149-Fc (mouse TMEM149 …); assay: SPR, mTMEM149-Fc captured on the chip
Experimental: (§1) Surface plasmon resonance (SPR) was run on a BiaCore 3000 (GE healthcare, Piscataway, N.J.) at 25° C. using anti-human IgG F(ab′)₂ (Jackson Immunoresearch, West Grove, Pa.) amine-coupled to BiaCore CM5 sensor chips. For kinetic analysis of protein interactions, Fc-fusion proteins at 25 μg/ml were first captured onto sensor chips by injecting them for 3 min at 5 μl/min. Then, test proteins diluted to their indicated concentrations in HBS-P buffer (0.01 M Hepes, pH 7.4 0.15 M NaCl 0.005% Surfactant P20) were injected for 3 min at 30 μl/min. Dissociation in HBS-P buffer alone was then measured at a flow rate of […]. Sensor chips surfaces were regenerated by injecting 10 mM glycine pH 1.5 for 30 s after each cycle. Kinetic parameters were determined by fitting the data to a 1:1 Langmuir model using the Biacore 3000 evaluation software (GE Healthcare).

[2] = molecular target: T2, nerve growth factor receptor (NGFR) on …; assay: flow cytometry of transfected 293T cells, FLAG-mIGFL detected with fluorescent anti-FLAG
[3] = molecular target: T3, DR4 on transfected 293T cells; assay: as above
[4] = molecular target: T4, Mouse TMEM149 on the cell surface …; assay: radioligand competition assay; 125I-FLAG-mIGFL against unlabelled ligand on 293T cells expressing mouse TMEM149
Experimental: (§2) Reference is made to Example 11.
(§3) To determine the affinity of IGFL with TMEM149, ligands were iodinated with ¹²⁵I using the lactoperoxidase method and free ¹²⁵I-Na was removed from the labeled protein by gel filtration using a NAP-5 column. 50 μL competition reaction mixtures containing a fixed concentration of iodinated ligand and decreasing concentrations of serially diluted, unlabeled ligand were placed into 96-well plates in triplicate. To each well, HEK293T cells stably expressing human or mouse TMEM149 were added at a density of 100,000 cells in 0.2 mL of binding buffer (Dulbecco's Modified Eagle Medium with 1% bovine serum albumin, 50 mM HEPES pH 7.2 and 2 mM sodium azide). The final concentration of the iodinated ligand with cells in each competition reaction was 100 pM (100,000 cpms per 0.25 mL). The final concentration of the unlabeled ligand with cells in the competition reaction varied, starting at 500 nM and then decreasing by […] dilution for ten concentrations, and included a zero-added, buffer-only sample. […] The filters were counted on a Wallac Wizard 1470 gamma counter (PerkinElmer Life and Analytical Sciences Inc.; Wellesley, Mass.). The binding data was evaluated using NewLigand software (Genentech), which uses the fitting algorithm of Munson and Robard to determine the binding affinity of the antibody (Munson, P. J., and D. Rodbard. 1980.

[5] = molecular target: T4, Mouse TMEM149 on the cell surface …; assay: radioligand competition: 125I-FLAG-mIGFL (100 pM) on 293T cells expressing murine TMEM149, unlabelled FLAG-mIGFL varied
Experimental: as §2, §3

[6] = molecular target: T5, EDA-A1; assay: SPR screen of TNF-like ligands
Experimental: as §1

[7] = molecular target: T6, FasL; assay: SPR screen of TNF-like ligands
Experimental: as §1

[8] = molecular target: 4-1 BBL (UniProt P41273 71-254, limits assumed); assay: SPR screen of TNF-like ligands
Chain of 4-1 BBL (P41273 71-254 limits assumed): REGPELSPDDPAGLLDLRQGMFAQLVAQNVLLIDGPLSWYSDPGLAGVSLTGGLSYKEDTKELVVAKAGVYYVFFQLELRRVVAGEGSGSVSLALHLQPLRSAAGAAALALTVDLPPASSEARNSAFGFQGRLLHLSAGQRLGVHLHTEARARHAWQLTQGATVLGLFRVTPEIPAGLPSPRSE
Experimental: as §1

[9] = molecular target: T7, CD30L; assay: SPR screen of TNF-like ligands
Experimental: as §1

[10] = molecular target: T8, RANKL; assay: SPR screen of TNF-like ligands
Experimental: as §1

[11] = molecular target: TNFα (UniProt P01375 77-233); assay: SPR screen of TNF-like ligands
Chain of TNFα (P01375 77-233 limits assumed): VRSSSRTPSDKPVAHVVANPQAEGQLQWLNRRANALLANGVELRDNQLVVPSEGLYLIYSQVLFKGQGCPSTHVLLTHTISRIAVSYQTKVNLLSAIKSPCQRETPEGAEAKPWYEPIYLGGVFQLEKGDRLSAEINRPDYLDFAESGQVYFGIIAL
Experimental: as §1

[12] = molecular target: T9, APRIL; assay: SPR screen of TNF-like ligands
Experimental: as §1

[13] = molecular target: T10, LTα; assay: SPR screen of TNF-like ligands
Experimental: as §1

[14] = molecular target: T11, TL1A; assay: SPR screen of TNF-like ligands
Experimental: as §1

[15] = molecular target: TNFSF14 (UniProt O43557 74-240, limits assumed); assay: SPR screen of TNF-like ligands
Chain of TNFSF14 (O43557 74-240 limits assumed): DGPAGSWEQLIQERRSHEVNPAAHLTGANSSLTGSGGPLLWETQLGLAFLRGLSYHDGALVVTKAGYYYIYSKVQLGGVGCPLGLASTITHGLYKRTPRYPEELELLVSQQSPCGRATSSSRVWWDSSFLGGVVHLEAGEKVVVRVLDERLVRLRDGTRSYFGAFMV
Experimental: as §1

[16] = molecular target: TRAIL (UniProt P50591 114-281); assay: SPR screen of TNF-like ligands
Chain of TRAIL (P50591 114-281 limits assumed): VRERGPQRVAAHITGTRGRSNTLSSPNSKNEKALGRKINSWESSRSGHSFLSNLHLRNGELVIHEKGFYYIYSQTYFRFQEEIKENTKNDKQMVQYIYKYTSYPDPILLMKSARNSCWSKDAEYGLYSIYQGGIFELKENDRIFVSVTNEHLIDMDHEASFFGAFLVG
Experimental: as §1

[17] = molecular target: BAFF (UniProt Q9Y275 134-285, limits assumed); assay: SPR screen of TNF-like ligands
Chain of BAFF (Q9Y275 134-285 limits assumed): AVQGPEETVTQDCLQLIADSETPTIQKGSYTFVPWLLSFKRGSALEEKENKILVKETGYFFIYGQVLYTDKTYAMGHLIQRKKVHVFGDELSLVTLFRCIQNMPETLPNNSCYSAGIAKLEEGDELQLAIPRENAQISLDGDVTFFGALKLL
Experimental: as §1

[18] = molecular target: T12, CD27L; assay: SPR screen of TNF-like ligands
Experimental: as §1

Binder | Kd [1] | binding result [2] | binding result [3] | Kd [4] | IC50 (read off the curve) [5] | binding result [6] | binding result [7] | binding result [8] | binding result [9] | binding result [10] | binding result [11] | binding result [12] | binding result [13] | binding result [14] | binding result [15] | binding result [16] | binding result [17] | binding result [18]
FLAG-mIGFL (recombinant mouse IGFL with N-terminal FLAG epitope tag) (ligand, not shown: small tags and cut ends, also called mIGFL-FLAG; mIGFL1) RKISTFSGPGSWPCNPKCDGRTYNPSEECCVHDTILPFKRINLCGPSCTYRPCFELCCPESYSPKKKFIVKLKVHGERSHCSSSPISRNCKSNKIFHGEDIEDNQLSLRKKSGDQP | 0.15 nM | no binding | no binding | 0.73 nM | ~0.8 nM | – | – | – | – | – | – | – | – | – | – | – | – | –
TMEM149-Fc (human TMEM149 extracellular domain with C-terminal human IgG1 Fc) (Fc fusion, also called recombinant human TMEM149-Fc; Fc-TMEM149; not shown: human IgG1 Fc, C-terminal) SQYCGRLEYWNPDNKCCSSCLQRFGPPPCPDYEFRENCGLNDHGDFVTPPFRKCSSGQCNPDGAELCSPCGGGAVTPTPAAGGGRTPWRCRERPVPAKGHCPLTPGNPGAPSSQERSSPASSIAWRTPEPVPQQAWPN | – | – | – | – | – | no binding | no binding | no binding | no binding | no binding | no binding | no binding | no binding | no binding | no binding | no binding | no binding | no binding
